{"source": "the DeepSol protein solubility set", "data": [{"assay": "soluble on expression in E. coli; label from the status in PepcDB or PDB records", "values": [{"sequence": "MDKDLQSIQEVRDLLAAASKAFEEYSQFSQSQIDEIVKEICEEAQKHEVELAKLANEETGFGRWEDKVLKNRLASVGVYETIKDLKTRGIINDDKEKRITEIGVPMGIIAALIPSTNPTSTTIYKIMISLKAGNAVIVSPHPNAKDSILKTAEYLIRAAERKGAPKGLIGVIKTPTLQATQELMKHKKTSLILATGGEAMVKAAYSSGTPAIGVGPGNGPSFIERSADIRKAVKRIIDSKTFDNGVICASEQSIVTEEVIKHQVADELKRQGAYFLNKDEREKVGKILMRANNTMNPKIVGKTALYVAAMAGITVPVTTKVLISEETEVSHFNPYSREKLCPVLGFYTEETWEKACEKCIEILQNEGIGHTMSMHTNNENIIREFSLKKPVSRLLVNTPAALGGVGATTNLIPAFTLGCGTVGGSATSDNIGPLNLINIRRVAYGTKELEELKNEGVCTCACELNTDTSNSKVSENDIESIIRQVLDGIYKK", "soluble on expression in E. coli": "not soluble"}, {"sequence": "MGFTLKSLEFLQGVEPFRIDENHENEGASEEEEVLISAETDAGMSLMLEWKMRLSEDSDQCTTCNCPVDFGDRAVLLEHYQSLFHRTNTLRKARNMTVYTEEDFEGIENSENDLTSSQTTIGLESDDEEFDALLLPANRSFFIKNGSVFSVPRNILHVGERDVSSVTFLRPFDCAIFLWNGGHFAAAMFENDKMTVQKSFHRYVARAKQGGVQSQHDSGGKGAAKSAGAQLRRYNEQKMKEEIQSIMSSWKSRLQKTPLLFIRCAAYHRNIFFEADAGIETRDDRIRTIPFETKRPNIDEISDCWQRLQQVSEHGAESDFRAEMLEVREKRKKLARKVAGKKRKDGGMQMICEWSDDDENEDISKEKKTHHIKVRTIKKPEETVVQWPRLDDEWRQKTYNYVRQDSVEALKEHLASLNEDVTSEANDYLRNAKIPPNRSTFLHVSAANDARKCLKYFLEEVNCDSSTKDGAGLPPYSSSANSDVKSIFIDYRVKNETAGNWARTHIPEPKKKVELTEEQEREQAERKKEKKARQKEKEKLKKEIAKRDVEEMEERQKYVNMSEREKRALAVDRRLAGLPPILRCHQCGVQLPPTPFQYSHYNFCSTSCVAEHRKANPQ", "soluble on expression in E. coli": "not soluble"}, {"sequence": "ASGTTLNWTGRMLGNGTLVKEGAGTLALSGFNAHGGTVVNAGTVQISNDYGLGNGALTLNNSRLASTADIYAEAAATVNGNGTFDTANGTTLQWMGDIGGAGALVKTGAGTLLLGGDSLY", "soluble on expression in E. coli": "not soluble"}, {"sequence": "MVSSLIRLRGGGLAEWNPEERPSIPAEIKRRVLVEAGHRCAIPTCRHIEVDIHHIVPWRTCQAHEYENLIALCPNCHRRADREEIDRKSLKLYKLNLRFVHEKYSQIEMDMLFDLARAPDGVGAPWTPFMLIFFKRVIDSGFVNVYELPGGIFVNGIKSSPSYLTITELGRNFISELGDRDLLALEHHHHHH", "soluble on expression in E. coli": "not soluble"}, {"sequence": "MGHHHHHHSHMNVVKASPQSALLLYISELIQEKNPMNAMNVVKPSARKYASYNMRDVIQERLPLYVPSAENPIHTNMASLPIREFTQERNLMSAMNVERPSPQSQYSMYIKERIQERGRMDAVIVRKPSPTYQTLSNIRKCTQEKWVESVKLKTPVMESHSSFLISELMQKKTLLVP", "soluble on expression in E. coli": "not soluble"}, {"sequence": "MAHHHHHHMPRPEILASCHQTLENCLIESTRNSMDATNKAMLESVAAEMMSVSDGVMRLPLFLAMILPVQLGAATADACTFIPVTRDQSDIYEVFNVAGSSFGSYAAGDVLDMQSVGVYSQLRRRYVLVASSDGTSKTATFKMEDFEGQNVPIRKGRTNIYVNRIKSVVDNGSGSLLHSFTNAAGEQITVTCSLNYNIGQIALSFSKAPDKGTEIAIETEINIEAAPELIPLINHEMKKYTLFPSQFVIAAEHTVQAAYEAQREFGLDLGSLQFRTLKEYLSHEQDMLRLRIMIWRTLATDTFDIALPVNQSFDVWATIIRGKFQTVYRDIIERVKSSGAMGMFAGADAASFFKQLPKDFFQPAEDYIQTPYVHYIGTPFRTTHST", "soluble on expression in E. coli": "not soluble"}, {"sequence": "NRYAKILVEKEKNRRTVMEQKMELESYKKVNVANDRYITLLHDTNHHIKTVYSLLKKDKKDDAMNMLSKLFDKYEKAEMIEYSGNTILNTILSDYKEKSSKENIECDIFVERGFNIEYVDEIDLVAMLSNLLSNSYEAAAKSDMKKIRIQMFMQNDGSFSVIKIENSYTSMIVEEDSVLKTTKQNKEFHGLGIKSVQQIAEKYNGWLSSTWSDNVFKSVLILENSMC", "soluble on expression in E. coli": "not soluble"}, {"sequence": "MAHHHHHHMVAPSGRTGRRTTRRRTLHTGAGTTVTQRSARLPSRLRRVSTLKTSRAPSCLSTSARLRLFRRRRTCWRCWSERASPYQSSATTPSSPPETAVCAWCRTALRTSSSRAPPWRYLACPSSPTAACAMPARAMWSLSSTTRTTARFASRPPTAICRTATTAPTSRATARTRKPSRTSTLTPRHASCTAASTARAASASTSTRRTSTSARLAAAGARFPPFMNWRRRTTICPFLSYAPSGSCTWAMQTRTTTCASSRLRGQRR", "soluble on expression in E. coli": "soluble"}, {"sequence": "MVFGENALVLKHLGSNTKIHFNAFDALAGWKQEGLPPVEVPAAAQWKFRSKPSQQVILDYDYTFTTPYCGSEVVEKDKETVEAKANPKGEATLQWENCEDQIDLAALSLKEPILFYDEVVLYEDELADNGVSLLTVKVRVMPSSWFLLLRFWLRVDGVLMRLRETRMHYRFGEDEAPTVLRENCWREATFQSLSAKGYPVDLAVWSDPSSISQRLPVIKHTTQKLKIPSKV", "soluble on expression in E. coli": "not soluble"}, {"sequence": "MGSDKIHHHHHHMSRSIVEVYASWMPIDTPLLVGHLTFAETSRGGVFSFTYDKHFLASNYRLQIDPLLALHSGELYNDSADKNFRAFLDSSPDRWGRILMQRRAAIECRKGIRASAKLTELDYLLGVHDSYRMGGIRFKTAASLDFLDNNTEFSAPPMTSLRELEQAAMNIERDDNIDSDDYYRWLKMLISPGSSLGGARPKACVTDSEGHLWIAKFPNQNDTFDVGAWEMVCYQLALAAGIDMFPSEIRKFSTEHHTFLTKRFDRVGGKRIHFSSAMTQLQYYDGEQSDGASYLEIAEFLSNNGAQTKADLAQLWRRIVFNIAVSNTDDHLRNHGFLLSDKGWKLSPAYDLNPIVGKHGLHLNITDTANELDYALAFEVIDFFRLSREDATRIYDDVMGAVKGWQTVASRLGISRNEQLTKQEAFNV", "soluble on expression in E. coli": "not soluble"}, {"sequence": "MSEQLVTPENVTTKDGKINLLDLNRQQMREFFKDLGEKPFRADQVMKWMYHYCCDNFDEMTDINKVLRGKLKEVAEIRAPEVVEEQRSSDGTIKWAIAVGDQRVETVYIPEDDRATLCVSSQVGCALECKFCSTAQQGFNRNLRVSEIIGQVWRAAKIVGAAKVTGQRPITNVVMMGMGEPLLNLNNVVPAMEIMLDDFGFGLSKRRVTLSTSGVVPALDKLGDMIDVALAISLHAPNDEIRDEIVPINKKYNIETFLAAVRRYLEKSNANQGRVTIEYVMLDHVNDGTEHAHQLAELLKDTPCKINLIPWNPFPGAPYGRSSNSRIDRFSKVLMSYGFTTIVRKTRGDDIDAACGQLAGDVIDRTKRTLRKRMQGEAIDIKAV", "soluble on expression in E. coli": "soluble"}, {"sequence": "SLKGRWVKYLLMGTVVAMLAACSSKPTDRGQQYKDGKFTQPFSLVNQPDAVGAPINAGDFAEQINHIRNSSPRLYGNQSNVYNAVQEWLRAGGDTRNMRQFGIDAWQMEGADNYGNVQFTGYYTPVIQARHTRQGEFQYPIYRMPPKRGRLPSRAEIYAGALSDKYILAYSNSLMDNFIMDVQGSGYIDFGDGSPLNFFSYAGKNGHAYRSIGKVLIDRGEVKKEDMSMQAIRHWGETHSEAEVRELLEQNPSFVFFKPQSFAPVKGASAVPLVGRASVASDRSIIPPGTTLLAEVPLLDNNGKFNGQYELRLMVALDVGGAIKGQHFDIYQGIGPEAGHRAGWYNHYGRVWVLKTAPGAGNVFSG", "soluble on expression in E. coli": "not soluble"}, {"sequence": "MSLLSYRHAFHAGNHADMLKHFTLFLVLQYFNRKDKPYWYIDTHGGAGVYNLEGSEAQKVGEYRQGIALLRQAQNLPAELSDFAAHIQKILPSPELYCGSPWLAQSLTRVGDKLRLFELHPTDFVHLQNNMGEAGLGKRGQVLREDGYKGLISLLPPPPRRAAVLIDPPYEEKQDYWRVTETLKSALKRFESGCYLIWYPCLSREESRKLPEELKKLVPDNYLHAELHVHAPKADGFGMHGSGMFVINPPYLLAEQLAANLPALTRLLAQDEGARYLLDSKEGHHHHHH", "soluble on expression in E. coli": "soluble"}, {"sequence": "MIPSRSARIIAKLQRLHSTTSAASVSSIDVKEVEKFGDLSAEWADELGPFHALHSLNRIRVPWIVDNVRKSDQKAPPRLVDVGSGGGLLSIPLARSGFDVTGIDATKQAVEAANQSLTAKPLQIAGISKRLRFEHTSVEDFCQKPHNKSAYDAVVASEIVEHVADLPGFIGCLAELARPGAPLFITTINRTWLSKLAAIWLAENVLKIVPPGVHDWEKFITPAELTSHLEKAGCRVTAVHGLMFHPVGNHWTWIESTQCNYGILAVKN", "soluble on expression in E. coli": "not soluble"}, {"sequence": "SMRPQPGDGERRYREASARKKIRLDRKYIVSCKQTEVPLSVPWDPSNQVYLSYNNVSSLKMLVAKDNWVLSSEISQVRLYTLEDDKFLSFHMEMVVHVDAAQAFLLLSDLRQRPEWDKHYRSVELVQQVDEDDAIYHVTSPALGGHTKPQDFVILASRRKPCDNGDPYVIALRSVTLPTHRETPEYRRGETLCSGFCLWREGDQLTKVSYYNQATPGVLNYVTTNVAGLSSEFYTTFKACEQFLLDNRNDLAPSLQTL", "soluble on expression in E. coli": "soluble"}, {"sequence": "MGSDKIHHHHHHHILNKKSYKNGYDNISDTDSVYFNGVEKYARFADFPVQINIMQKFDYTLDQLMLRDDYEISLEEWSSILFQIIFALAVAQKEYSFAHNDIHSDNVMFSNTKEPYIYYHINDTIYKVPTFNRVAKLIDFARGTFKVDGKWYISDVFENGGEADGQYEYDLNDFKPNHSFDLARLASSIIDNVNVPEIEDILRTWIKTTSGYDVMEDKDTFDIYIKIAKECFNAVPTKVIKHKLFQQFKITKKQKPNNTYVYYY", "soluble on expression in E. coli": "not soluble"}, {"sequence": "MKDSKFPYYFSNALLMLVPRFVYRAQAKRLLSTLTEAEKQYCLERVNYYNKCGQPFTVDSREQSYAKIGEFKKTKGWTYFFDTRQVIRYFPSEFTFNYINGDVTHIPNVPSFIKSRPIHGDNQNSVVLKLNQIRHFKFVDDEMSYHDKKDMVAWRGVGFQPHRCKVIQAFYDHPRCNIGQTRPQEGQPWEKGFMSIEEQLQYKFLLCIEGNDVATNLKWAMSSNSLVIMSKPKYETWFMEGKLEAGIHYVEVQDDYSDLPEKMDYYLANEQEALAIIENAHQWVEQFKDKRKERLISLMVADKYFTLSHQQLEHHHHHH", "soluble on expression in E. coli": "soluble"}, {"sequence": "MGSDKIHHHHHHMIIDRLFDSVEKKGHVCLGLDTDITYVPEEFCKKFNSIEDAIFNFNKKIIDATLDVVSCYKVQIAYYEAYGLKGLLAYKRTLEYLREKKAIAIADIKRGDIAKTAEMYAKAHFEGDFEADFVTLNPYMGLDGIEPYMPYIEKMEKGLFILLRTSNKGAYDIQYIKTQGGKNVYDEVGEKIYDLGQKATGRSKYSSIGAVVGCTHVEEGVEIRNKFKNMFFLIPGYGAQGGTAKEVSLYLREGNGGVVNSSRGILLAYKKEENGEKIFDECARLAAINMRDEIRKTL", "soluble on expression in E. coli": "not soluble"}, {"sequence": "MGSDKIHHHHHHDEFIQGIGNQNAQESGVWDFSMSISDMKFSQEDGAQTNPMIGMLITQIKDASLSGKIQVDAKKEKAFNLEMKLKAMGMDVPISLVGSLDNEGKEPKLYLATDMMEYIVAVADSMTDGAIDSSQLDTEKLKGKYIDLLAMNEESTKEWQDTIKEYQESEKERKQSAKEYKEFLEGLDKDTFEKKGDTITHTFTKKELQKLIKITTETSEKGKEQDPFEKVKDVSAKVSVNTKENKTNMLINVKPQQDKNVDMGLESLSSKISITQKAKKATISMPKKENILSEQEVEKIFSDSTSMTGLSTEDTTVAINQ", "soluble on expression in E. coli": "not soluble"}, {"sequence": "MWRLRMSLGISEAFDLRPDYIISVIKDTRAKLVGFQFPEGLKRKGPELAKKVEKATGAEIIISGDPCFGACDLDRTLLDHVDILFHFGHAELEDIRLSNKVYFIETRSSVDVLHVIEKAVPELKGQKIGLITTVQHVHKLPDVCGVLERMGKTCVIGRGDSRIAYAGQVLGCNFSAARDEDCDEYLYIGSGDFHPLGVALSTKKRVLAADPFSGEVREVDPSRILRQRSAVIAKSLDAQVFGIIVSSKNGQKRMELASSLKELAKKHGKESHLILIDLVTPDQLLQFKVDAFVNTACPRLAIDEVGRFPAPMLTPQEFEIVLGEREWEKLVLDEITEEPVLEHHHHHH", "soluble on expression in E. coli": "not soluble"}]}]}
